Laboratory results: article PMC2386126, “The Mycobacterium tuberculosis Rv2540c DNA sequence encodes a bifunctional chorismate synthase” (BMC Biochemistry, 2008)

How the values were obtained:
[1] = test system: NC(=O)C1=CN([C@@H]2O[C@H](COP(=O)(O)OP(=O)(O)OC[C@H]3O[C@@H](n4cnc5c(N)ncnc54)[C@H](O)[C@@H]3O)[C@@H](O)[C@H]2O)C=CC1; assay: purified protein; settings: apparent, holoenzyme preincubated with 40 μM FMNox, no EPSP, 50 mM Tris-HCl pH 7.8, 25°C
[2] = target: T1, MtCS (chorismate synthase, aroF, Rv2540c) (Mycobacterium tuberculosis, UniProt P9WPY1); assay: biochemical; assay type: binding; settings: read-out: dissociation constant
T1 construct: gene aroC
T1 sequence (P9WPY1 whole entry, looked up): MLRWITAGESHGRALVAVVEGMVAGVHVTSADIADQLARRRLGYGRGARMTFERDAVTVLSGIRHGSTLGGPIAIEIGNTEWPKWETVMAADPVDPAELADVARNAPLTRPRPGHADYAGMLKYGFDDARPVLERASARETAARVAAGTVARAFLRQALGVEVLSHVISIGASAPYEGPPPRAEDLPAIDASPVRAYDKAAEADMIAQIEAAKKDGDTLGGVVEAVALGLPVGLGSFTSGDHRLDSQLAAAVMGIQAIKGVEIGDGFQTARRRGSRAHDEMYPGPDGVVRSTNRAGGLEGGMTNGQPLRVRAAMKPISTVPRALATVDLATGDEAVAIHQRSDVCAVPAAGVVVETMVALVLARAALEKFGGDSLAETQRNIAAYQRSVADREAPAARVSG

Row | Compound | Km [1] | Kd [2]
1 | MtCS (chorismate synthase, aroF, Rv2540c) (Mycobacterium tuberculosis H37Rv) | 36 ± 4 µM | 
2 | NC(=O)C1=CN([C@@H]2O[C@H](COP(=O)(O)OP(=O)(O)OC[C@H]3O[C@@H](n4cnc5c(N)ncnc54)[C@H](O)[C@@H]3O)[C@@H](O)[C@H]2O)C=CC1 [NADH] |  | 156 ± 12 µM
